Assay results reported in the supplement of paper PMC6757056.
± gives the standard deviation of the averaged measurements.

B1: library; a variant is named by its letters at N, in order (parent)
chain: GCUGUCACCGGUGCUUGGUACGUUAUAUUCAGCCGGUCUGAUGAGUCUNNNNNNAGACGAAACAGC

Key:
(6R,S)-folinic acid [1] = variants of: B1; experiment: FACS-Seq fitted mean relative fluorescence mCherry/BFP without ligand (log10 relative fluorescence); HEK293T overexpressing SLC46A1; higher = higher reporter protein expression; conditions: without (6R,S)-folinic acid; ligand present: no
Outline: (§1)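 Lentivirally transduced HEK293T libraries carried an mCherry reporter with the ribozyme switch and an EF1α-BFP marker. Transduced cells were enriched, then incubated with or without ligand for 48 h and sorted into 6 bins by mCherry/BFP. Genomic DNA from each bin was PCR-amplified, barcoded and sequenced on MiSeq. Fluorescence was the fitted normal mean of log10(mCherry/BFP) bin counts, scaled to five spiked-in control ribozymes.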

(6R,S)-folinic acid [2] = variants of: B1; experiment: normalized RNA/DNA level without ligand (relative to sTRSVctl = 100) (log10 (% of sTRSVctl)); HEK293T overexpressing SLC46A1; higher = less ribozyme self-cleavage, higher mRNA level; conditions: without (6R,S)-folinic acid; ligand present: no
Outline: (§2)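 Total RNA, extracted with EDTA 72 h after HEK293T cells were transfected with 4 µg per 6-well well of reporter-linked ribozyme switch library plasmids, was reverse-transcribed, amplified, barcoded and sequenced. Ligand, if used, was added 1 h before transfection. RNA level was derived from RNA reads divided by DNA reads and normalized to a spiked-in non-cleaving sequence or to the top sequences. This was multiplied by 100 and log10-transformed, with the top set of 25 sequences and a ≥100 DNA read minimum.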

(6R,S)-folinic acid [3] = variants of: B1; experiment: FACS-Seq fitted mean relative fluorescence mCherry/BFP with ligand (log10 relative fluorescence); HEK293T overexpressing SLC46A1; ligand concentration (+) FACS-Seq: 6 mM; higher = higher reporter protein expression; conditions: with (6R,S)-folinic acid; ligand present: yes
Outline: as §1

(6R,S)-folinic acid [4] = variants of: B1; experiment: normalized RNA/DNA level with ligand (relative to sTRSVctl = 100) (log10 (% of sTRSVctl)); HEK293T overexpressing SLC46A1; ligand concentration (+) RNA-Seq: 6 mM; higher = less ribozyme self-cleavage, higher mRNA level; conditions: with (6R,S)-folinic acid; ligand present: yes
Outline: as §2

Variant | FACS-Seq fitted mean (log10) ((6R,S)-folinic acid [1]) | normalized RNA/DNA level without ligand (log10) ((6R,S)-folinic acid [2]) | FACS-Seq fitted mean (log10) ((6R,S)-folinic acid [3]) | normalized RNA/DNA level with ligand (log10) ((6R,S)-folinic acid [4])
GCUGUCACCGGUGCUUGGUACGUUAUAUUCAGCCGGUCUGAUGAGUCUUCCGAGAGACGAAACAGC [UCCGAG] | -0.0266 ± 0.13 | 1.809 ± 0.011 | 0.131 ± 0.18 | 1.9932 ± 0.0011
GCUGUCACCGGUGCUUGGUACGUUAUAUUCAGCCGGUCUGAUGAGUCUACCUAGAGACGAAACAGC [ACCUAG] | 0.3338 ± 0.0029 | 1.956 ± 0.0051 | 0.37 ± 0.31 | 2.02 ± 0.03
GCUGUCACCGGUGCUUGGUACGUUAUAUUCAGCCGGUCUGAUGAGUCUGCCGAGAGACGAAACAGC [GCCGAG] | 0.418 ± 0.066 | 1.968 ± 0.005 | 0.538 ± 0.22 | 2.016 ± 0.02
GCUGUCACCGGUGCUUGGUACGUUAUAUUCAGCCGGUCUGAUGAGUCUGCCGAAAGACGAAACAGC [GCCGAA] | 0.247 ± 0.078 | 2.011 ± 0.0054 | 0.486 ± 0.16 | 2.05 ± 0.022
GCUGUCACCGGUGCUUGGUACGUUAUAUUCAGCCGGUCUGAUGAGUCUUCCGUGAGACGAAACAGC [UCCGUG] | 0.0926 ± 0.016 | 1.78 ± 0.029 | 0.562 ± 0.067 | 1.98 ± 0.043
GCUGUCACCGGUGCUUGGUACGUUAUAUUCAGCCGGUCUGAUGAGUCUGCCAUGAGACGAAACAGC [GCCAUG] | 0.2783 ± 0.0012 | 1.982 ± 0.019 | 0.209 ± 0.15 | 2.01 ± 0.026
GCUGUCACCGGUGCUUGGUACGUUAUAUUCAGCCGGUCUGAUGAGUCUCCCCUGAGACGAAACAGC [CCCCUG] | 0.237 ± 0.046 | 2.063 ± 0.0031 | 0.0558 ± 0.16 | 2.053 ± 0.0049
GCUGUCACCGGUGCUUGGUACGUUAUAUUCAGCCGGUCUGAUGAGUCUCCCCUAAGACGAAACAGC [CCCCUA] | 0.532 ± 0.01 | 2.052 ± 0.0066 | 0.388 ± 0.34 | 2.06 ± 0.034
GCUGUCACCGGUGCUUGGUACGUUAUAUUCAGCCGGUCUGAUGAGUCUUCCGCGAGACGAAACAGC [UCCGCG] | 0.277 ± 0.014 | 1.842 ± 0.0081 | 0.502 ± 0.16 | 1.96 ± 0.041
GCUGUCACCGGUGCUUGGUACGUUAUAUUCAGCCGGUCUGAUGAGUCUACCGUUAGACGAAACAGC [ACCGUU] | 0.123 ± 0.046 | 2.008 ± 0.016 | -0.259 ± 0.15 | 2.01 ± 0.038
GCUGUCACCGGUGCUUGGUACGUUAUAUUCAGCCGGUCUGAUGAGUCUGCCAGCAGACGAAACAGC [GCCAGC] | 0.269 ± 0.003 | 2.0142 ± 0.00072 | 0.102 ± 0.14 | 2.02 ± 0.038
GCUGUCACCGGUGCUUGGUACGUUAUAUUCAGCCGGUCUGAUGAGUCUGCCAGGAGACGAAACAGC [GCCAGG] | 0.43 ± 0.14 | 1.982 ± 0.0037 | 0.666 ± 0.18 | 2.002 ± 0.015
GCUGUCACCGGUGCUUGGUACGUUAUAUUCAGCCGGUCUGAUGAGUCUGCCAGAAGACGAAACAGC [GCCAGA] | 0.385 ± 0.028 | 2.019 ± 0.017 | 0.278 ± 0.36 | 2.03 ± 0.021
GCUGUCACCGGUGCUUGGUACGUUAUAUUCAGCCGGUCUGAUGAGUCUACCGAGAGACGAAACAGC [ACCGAG] | 0.326 ± 0.018 | 1.893 ± 0.018 | 0.47 ± 0.072 | 2.01 ± 0.024
GCUGUCACCGGUGCUUGGUACGUUAUAUUCAGCCGGUCUGAUGAGUCUACCGAAAGACGAAACAGC [ACCGAA] | 0.0903 ± 0.11 | 2.013 ± 0.0085 | -0.117 ± 0.18 | 2.03 ± 0.043
GCUGUCACCGGUGCUUGGUACGUUAUAUUCAGCCGGUCUGAUGAGUCUACCCGAAGACGAAACAGC [ACCCGA] | 0.249 ± 0.044 | 2.017 ± 0.016 | 0.537 ± 0.076 | 2.03 ± 0.044
GCUGUCACCGGUGCUUGGUACGUUAUAUUCAGCCGGUCUGAUGAGUCUCCCCGAAGACGAAACAGC [CCCCGA] | -0.3459 ± 0.0019 | 2.028 ± 0.0046 | -0.64 ± 0.16 | 2.02 ± 0.038
GCUGUCACCGGUGCUUGGUACGUUAUAUUCAGCCGGUCUGAUGAGUCUUCCGGGAGACGAAACAGC [UCCGGG] | 0.446 ± 0.031 | 2.02 ± 0.026 | 0.62 ± 0.13 | 2.05 ± 0.031
GCUGUCACCGGUGCUUGGUACGUUAUAUUCAGCCGGUCUGAUGAGUCUCCCGGUAGACGAAACAGC [CCCGGU] | 0.139 ± 0.18 | 2.023 ± 0.0033 | 0.0649 ± 0.052 | 2.02 ± 0.029
GCUGUCACCGGUGCUUGGUACGUUAUAUUCAGCCGGUCUGAUGAGUCUUCCAGAAGACGAAACAGC [UCCAGA] | -0.0235 ± 0.25 | 2.01 ± 0.0079 | 0.123 ± 0.14 | 2 ± 0.029
GCUGUCACCGGUGCUUGGUACGUUAUAUUCAGCCGGUCUGAUGAGUCUUCCAGGAGACGAAACAGC [UCCAGG] | 0.587 ± 0.23 | 1.976 ± 0.011 | 0.559 ± 0.28 | 2.01 ± 0.056
